Test results taken from patent publication US20250002566A1 (FUNDA O OSWALDO CRUZ, published 2025).

Tests used:
[1] = biological target: DENV1 envelope (E) protein on virus particles (strain PE/97-42735) (Dengue virus 1); assay: cell-based or functional assay
[2] = biological target: DENV2 envelope (E) protein on virus particles (strain PE/95-3808) (Dengue virus 2); assay: cell-based or functional assay
[3] = biological target: T1, ZIKV Envelope (E) protein, recombinant, in its dimeric form (Native Antigen, UK) (Zika virus); assay: thermal unfolding of the ZVPA3-E(Dimer) complex at the estimated stoichiometry, compared with ZVPA3 alone
T1 chain: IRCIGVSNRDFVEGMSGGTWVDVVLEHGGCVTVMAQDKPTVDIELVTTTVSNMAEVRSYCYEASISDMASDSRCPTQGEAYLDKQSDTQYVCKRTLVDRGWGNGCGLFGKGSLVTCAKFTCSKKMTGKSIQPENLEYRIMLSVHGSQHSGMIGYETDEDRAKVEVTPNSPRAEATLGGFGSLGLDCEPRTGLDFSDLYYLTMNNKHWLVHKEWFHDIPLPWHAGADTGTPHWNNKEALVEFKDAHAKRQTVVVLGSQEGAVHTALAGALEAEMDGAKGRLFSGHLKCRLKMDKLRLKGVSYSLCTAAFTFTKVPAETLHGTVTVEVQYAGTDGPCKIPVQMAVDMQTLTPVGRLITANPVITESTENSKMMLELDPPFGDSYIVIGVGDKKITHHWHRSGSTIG

[4] = biological target: T1, ZIKV Envelope (E) protein, recombinant, …; assay: estimated from MST concentrations at maximum binding (ca. 3x10^13 E dimer molecules with ca. 8x10^12 ZVPA3 molecules)
[5] = biological target: T1, ZIKV Envelope (E) protein, recombinant, …; assay: microscale thermophoresis (MST), 150 nM dye-labelled ZIKV E, ZVPA3 titrated in 16 serial 1:2 dilutions, three independent experiments

B1: ZVPA3 (designed binder)
chain: MGSSHHHHHHSSGLVPRGSHMAKGDPHVLLTTSAGNIELELDSQKAPVSVQNFLDYVNNGFYNNTTFHSVIPGYMIQGGGYTEDMQQKQPNPPIKNEADNGLRNTRGTIAMMRTEDKDSATSQFFINVADNAYADHGQTRYGFAVFGKVVKGMDVADKISQVPTHDVGPYQSVPSKPVVILSATVLPGSGC
notes: Produced as a monomer, ca. 20 kDa; In the MST with virus particles ZVPA3 carried the RED NT-647-NHS dye; The crystal structure of ZVPA3 alone is PDB 7ZFM; also called ZVAP3; designed protein
In the case of B1, the “EC50, plaque reduction neutralization test (PRNT) of DENV1 on Vero cells” value [1] is reported as 870 nM, the “EC50, plaque reduction neutralization test (PRNT) of DENV2 on Vero cells” value [2] is reported as 980 nM and the “stability gain of the complex against ZVPA3 alone (thermal unfolding)” value [3] is reported as ~5 ° C. For the same binder, the “stoichiometry ratio ZVPA3:E(Dimer)” value [4] was 3.75 E(Dimer) per ZVPA3 and the Kd [5] was 86.6 nM.
